This is an account of results in PMC6599135, “Atomic view into Plasmodium actin polymerization, ATP hydrolysis, and fragmentation” (PLoS Biology, 2019).

The series deals with the molecule itself. Nature of the series: negative-stain electron microscopy of polymerised samples; polymerised 16 h at 298 K at 20 uM in F buffer without jasplakinolide, diluted to 1 uM, stained with 2% uranyl acetate.

B1: Plasmodium falciparum actin I, wild type (natural protein)
chain: not shown
notes: Plasmodium falciparum actin I; His74 is not methylated in the recombinant protein; In the pyrene assay about 10% of the actin carried N-(1-pyrene)iodoacetamide; also called PfActI; P. falciparum actin I; source: insect cells, purified (Ni-NTA, TEV cleavage, second Ni-NTA, Superdex 200 gel filtration)
Take B1: the binding result was “binds”.
